The nanobody polyreactivity screen of Harvey et al. (2022)

Experiment: yeast display, Sf9 membrane polyspecificity reagent, FACS + sequencing; frameworks hold sequencing errors
Outline: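 Sorting gates, low and high (top ~1%), were placed on anti-HA fluorescence to track expression and on streptavidin fluorescence to track reagent binding. A clone's polyreactivity label is taken from the gate it came out of. The reagent was 10% biotinylated, detergent-solubilized Sf9 membrane, applied for 1 hour at 4 °C to galactose-induced yeast display cells.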

| Sequence | polyreactivity (PSR sort gate) |
| --- | --- |
| QVQLVESGGGLVQAGGSLRLSCAAYGRTFGLNAMGWYRQAPGKERELVAAISSSGGSTYYADSVKGRFTISRDNAKNTVYLQMNSLKPEDTAVYYCARVPLHRYGYWGQGTQVNVSS | high polyreactivity |
| QVQLVESGGGLVQAGGSLRLSCAAYGRTFGRYAMGWYRQAPGKERELVAVINGGGSTYYADSVKGRFTISRDNAKNTVYLQMNSLKPEDTAVDYCAVGGYTRTGGWFDYWGQGTQVTVSS | high polyreactivity |
| QVQLVESGGGLVQAGGSLRLSCAAYGRTFGYNTMGWYRQAPGKERELVATIRTNGVSTYYADSVKGRFTISRDNAKNTVYLQMNSLKPEDTAVYYCNADPHDQYDYWGQGTQVTVSS | low polyreactivity |
| QVQLVESGGGLVQAGGSLRLSCAAYGRTFWNYAMGWYRQAPGKERELVAAISSSGGTTYYADSVKGRFTISRDNAKNTVYLQMNSLKPEDTAVYYCAATGVSKPQRSFVYWGQGTQVTVSS | low polyreactivity |
| QVQLVESGGGLVQAGGSLRLSCAAYGRTLRYYAMGWYRQAPGKERELVAAISSGGTTNYADSVKGRFTISRDNAKNTVYLQMNSLKPEDTAVYYCAARYRRFRFTQYDYWGQGTQVTVSS | high polyreactivity |
| QVQLVESGGGLVQAGGSLRLSCAAYGRTSRRNAMGWYRQAPGKERELVAAINRTGGTTYYADYVKGRFTISRDNAKNTVYLQMNSLKPVVNAVYYCAAGAPLSTPRGTTYRYYYWGQGTQVTVSS | high polyreactivity |
| QVQLVESGGGLVQAGGSLRLSCAAYGSIFALYAMGWYRPAPGKERELVARISSGGSTYYADSVKGRFTISRDNAKNTVYLQMNSLKPEDTAVYYCARYHKTHAVLRYDYWGQGTQVTVSS | low polyreactivity |
| QVQLVESGGGLVQAGGSLRLSCAAYGSIFGVNVMGWYRQSPGKERELVAAIDVSDTSTYYADSVKGRFTMSRDNAKNTVYLQLNSLKPDDTAVYYCAADGLRWWPFEYRFTFDYWGQGTQVTVSS | low polyreactivity |
| QVQLVESGGGLVQAGGSLRLSCAAYGSIFKRYAMGWYRQAPGKERELVASNSSSGSSTNYADSVKGRFTISRDTAKNTVYLQMNSLKPEDTSVYYCAADTKASGTPVYYSYLYDYWGQGTHVTVSS | high polyreactivity |
| QVQLVESGGGLVQAGGSLRLSCAAYGSIFWSYAMGWYIQAPGKERELVAGITRSGGSTYYSDSVKGRFTISRDNAKNPVYLQMISLKPEDTAVYYCNKAFGGDKYSGSYEYWGQGNQVTVSS | high polyreactivity |
| QVQLVESGGGLVQAGGSLRLSCAAYGSIIHANAMGWYRQAPGKERELVAAITGDGSTYYADSVKGRFTISRDNAKNTVYLQMNSLKPEDTAVYYCNAEYYSTYDSWGQGTQVTVSS | low polyreactivity |
| QVQLVESGGGLVQAGGSLRLSCAAYGSILGIYAMGGYRQAPGKERELVAAIRTSSASTYYADSVKGRFTISRDNAKNTVYLQMNSLKPEDSAVYYCAAYAFSYTPYYSWGQGTQVTVSS | high polyreactivity |
| QVQLVESGGGLVQAGGSLRLSCAAYGSTFFLYAMGWYRQAPGKVRELVAAITYTDGDTYYADSVKGRFTISRDNAKHTVYLQMNSLKPEDTAVYYCNAGGDEPVYGSGYDYWGQGTQVNVSS | low polyreactivity |
| QVQLVESGGGLVQAGGSLRLSCAAYGSTFRRNTMGWYRQAPGKERELVAGISSSGGSTYYADSVKGRFTISRDTAMNTVYLQMNSLKPEDTAVYYCAARYYVSYVGYNYWGQCTQVTVSS | high polyreactivity |
| QVQLVESGGGLVQAGGSLRLSCAAYGSTFSLNTMGWYRQAPGKERELVAAITSGGSTNYADSVKGRFTISRDNAKNTVYLQMNSLKPEDTSVYYCAATPGRGGGYNYWGQGTQVTVSS | low polyreactivity |
| QVQLVESGGGLVQAGGSLRLSCAAYGSTFTDYDMGWYRQAPGKERELVAAITSGGSTNYADSVKGRFTISRDNAKNTVYLQMNSLKPEDTAVYYCAAADADRKYDYWGQGTQVTVSS | low polyreactivity |
| QVQLVESGGGLVQAGGSLRLSCAAYGSTLTRNAMGWYRQAPGKERELVATITATGGSTYYADSVKGRFTISRDNAKNTVYLQMTSLKPEDTAVYYCNKVYREYSLSYWSPTHWAYYYWGQGTQVTVSS | low polyreactivity |
| QVQLVESGGGLVQAGGSLRLSCAAYGYTFGYYTMGWYRQAPWKERQLVASIDSGGGTNYADSVKGRFTISRDNAKNTVYLQMNSLKPEDTAVYYCAAESPLYWVDDFESGWRYYYWGQGTQVTVSS | low polyreactivity |
| QVQLVESGGGLVQAGGSLRLSCADSGFIFLGNARGWYRQAAGKERELVAASSSGGSTYADSVKGRFTISRDNAKNTVYLQMNSLKPEDTAVYYCALDPPFPAQNYHEDDYWGQGTQVTVAS | low polyreactivity |
| QVQLVESGGGLVQAGGSLRLSCADSGFIFWVYAMGWYRQAPGKERELVAAITSGGGSTYYADSVKGRFTISRDNAKNTVYLQMNSLKPEDTAVYYCATSLYTDNSWENYWGQGTQVTVSS | high polyreactivity |
| QVQLVESGGGLVQAGGSLRLSCADSGFIIFRYAMGWYRQAPGKERELVAAITDDGSTYADSVKGRFTISRDNAKNTVYLQMNSLKPEDTAVYYCNVQSKSSYWWFGYDYWGQRTQVTVSS | low polyreactivity |
| QVQLVESGGGLVQAGGSLRLSCADSGFTFATYAMGWYRQAPGKKGRLVAAISNAGSTKYADSVKGRFTISRDNAKNTFYLQLNSLKPEDTAVYYCAASTLYASYYYLYYYWGQGTQVTVSS | high polyreactivity |

| Sequence | polyreactivity (PSR sort gate) |
| --- | --- |
| QVQLVESGGGLVQAGGSLRLSCADSGFTFCSYTMGWYRQAPGKERELVAAITGGGNTKYADSVKGRFTISRDNAKNTFYLQMISLKPEDSAVYYCARLSRYKSYYTSRFDYWGQGNQVTVSS | high polyreactivity |
| QVQLVESGGGLVQAGGSLRLSCADSGFTFGVYVMGWYRQAPAKERELVAAISRSGGSTYYADSVKGRFTISRDKAKNTVYLQMNCLKPEETAVYYCNADRLVSYRAGEYDYWGQGTQVTVSS | high polyreactivity |
| QVQLVESGGGLVQAGGSLRLSCADSGFTFKSYTMGWYRQAPGKERELVAAISRRDGSTYYADSVKGRFTISRDNAKNTVYLQMNSLKPEDTAVYYCAKVWYGDRNIDRYDYWGQGTQVTVSS | high polyreactivity |
| QVQLVESGGGLVQAGGSLRLSCADSGFTFSWYTMGWYRQAPGKERELVAALTVSGGSTYYADSVKGRFTISRDNAKNTVYLQMNSLKPEDTAVYYCNAQDPFTYYSSSPTYDYWGQGTQVTVSS | low polyreactivity |
| QVQLVESGGGLVQAGGSLRLSCADSGFTFWYYDMGWYRQAPGKERELVAAITNGGRTYYADSVKGRFTISRDNAKNTVYLQMNSLKPEDTAVYYCAVLGGHGFYQGDYWGQGTQVTVSS | high polyreactivity |
| QVQLVESGGGLVQAGGSLRLSCADSGFTYAYYVMGWYRQAPGKERELVAAISISGGRTYYADSVKGRFTISRDNAKNTVYLQMNSLKPEDTAVYYCAADRRTDGHDYWGQGTQVTVSS | high polyreactivity |
| QVQLVESGGGLVQAGGSLRLSCADSGGTFESYAMGWYRQAPGKERELVAAITGRGGRTYYADSVKGRFTISRDNAKNTVYLQRNSLKPEDTAVYYCAARSPPRGYSRILDYWGQGTQVTVSS | high polyreactivity |
| QVQLVESGGGLVQAGGSLRLSCADSGGTFFGYAMGWYRQAPGKERELVAAIRWSDGRTYYADSVKGRFTISRDNAKNTVFLQMNSLKPEDTAVYYCNADDARLFDYWGQGTQVTVSS | low polyreactivity |
| QVQLVESGGGLVQAGGSLRLSCADSGIIFKGYDMGWYSQPPGKEREVVAAIYSGSTNYADSVKGRFTISRDNAKNTVYLQMNSLKPEDTAVYYCNSDLGRATFYQRVFIERGGYWGQGTQVTVSS | low polyreactivity |
| QVQLVESGGGLVQAGGSLRLSCADSGITFFIYAMGWYIQAPGKERELVAAISGRSGSTYYADSVKGRFTISRDNAKNTVYLQMNSLKPEDTAVYYCAAGLTFFSYSLDYWGQGTQVTVSS | low polyreactivity |
| QVQLVESGGGLVQAGGSLRLSCADSGITFPVNDMGWSRQAHGKEREFVADITSSGGNTYYADSVKGRFTISRDNAKNTVYLKMNSLIPEDTAVYYCNADDGYFYVYQGWYEEMDYWGQGNQVTVSS | high polyreactivity |
| QVQLVESGGGLVQAGGSLRLSCADSGITFSVYAMGWYRQAPGKERELVASISSGGTSTYYADSVKGRFTISRDNAKNTVYLQMNSQKPEDTAVYYCAAYSYYTGDQYSYDYWGQGTQVTVSS | low polyreactivity |
| QVQLVESGGGLVQAGGSLRLSCADSGITFWTNTMGWYRQAPGKERELVAVITSGGTTNYADSVKGRFTISRDNAKNTVYLQMNSLKPEDTAVYYCAKKYGYFGLHGYWGQGTQVTVSS | high polyreactivity |
| QVQLVESGGGLVQAGGSLRLSCADSGLTFYRYAMGWYRQAPGKERELVAAIRVSGNTYYADSVKGRFTISRDNAKNTVYLQMNSLKPEDTAVYYCAAKPYYFYGMDYWGQGTQVTVSS | high polyreactivity |
| QVQLVESGGGLVQAGGSLRLSCADSGNIFRSYKGWYRQAPGKERELVASISRRGGSTYYADSVKGRFTISRDNAKNTVYLQINSLKPEDSAVYYCARRWSWVNGVFGLYWGQGTQVTLSS | high polyreactivity |
| QVQLVESGGGLVQAGGSLRLSCADSGNTFPSYVMGWYRQAPGKERELVAAINRGGGTYYADSVKGRFTISRDNAKNTVYLQMNSLKPEDTAVYYCAVRYQRHPNMDYWGQGTQVTVSS | low polyreactivity |
| QVQLVESGGGLVQAGGSLRLSCADSGNTIYGYAMGWNRQAPGKERELVASITLSGDSTYYADSVKGRFTISRDNAKNTVFLQMNRLKPEDTSVYYCSGVYTYPLGYYHYTYDYWGQGSQVTVSS | low polyreactivity |
| QVQLVESGGGLVQAGGSLRLSCADSGRIFGYYAMGWYRQAPGKERELVAAITVSDGRTNYADSVKGRFTISRDNAKNTVYLQMNSLKPEDTAVYYCAAVTPFRVLYDYWGQGTQVTVSS | low polyreactivity |
| QVQLVESGGGLVQAGGSLRLSCADSGRIFHYNAMGWYRQAPRKERELVAAISTGGSTNYADSVKGRFTISRDNAKNTVYLQMNSLNPEDTAVYYCAADHPVTYPTSKFDYCGQGTQVTVSS | low polyreactivity |
| QVQLVESGGGLVQAGGSLRLSCADSGRIFRRYAMGWYRQAPGKERELVAAITTSGGSTYYADSVKGRFTISRDNAKNTVYLQMNSLKPEDTAVYYCNARSSVYGHRKGSARIPRYDYWGQGTQVTVSS | high polyreactivity |
| QVQLVESGGGLVQAGGSLRLSCADSGRIFVRKAMGWYRQAPGKERELVAAISARGGRTNYADSVKGRFTISRDNAKNTVYLQMNSLKPEDTAVYYCAADGLRAAYLYDYWGQGTQVTVSS | high polyreactivity |
